Data: patent US20240309102A1 (LENTIGEN TECHNOLOGY, published 2024)

B1: CD123 hScFv binder M12308 (scFv)
scFv: EVQLVETGAEVKNPGSSVKVSCKASGGTLSNYAISWVRQAPGKGLEWMGGIIPIFGTANYAQKFQGRVTITADESTSTAYMELSSLRSEDTAVYYCARRSSWYPEGCFQHWGQGTLVTVSSGGGGSGGGGSGGGGSDIQLTQSPSSLSASTGDRVTITCRASQGISSYLAWYQQKPGKAPKLLIYAASTLQSGVPSRFSGSGSGTDFTLTISCLQSEDFATYYCQQYYSYPLTFGGGTKLDIK
B2: CD123 hScFv binder M12316 (scFv)
scFv: EVQLVESGGGLVQPGGSLRLSCAASGFTFSSYAMHWVRQAPGKGLEWVSSISSSSSYIYYADSVKGRFTISRDNSKNTLYLQMNSLRAEDTAVYYCARDWDDAFDIWGQGTTVTVSSGGGGSGGGGSGGGGSDIQMTQSPSSLSASVGDRVTITCQASQDISNYLNWYQQKPGKAPKLLIYDASNLETGVPSRFSGSGSGTDFTFTISSLQPEDIATYYCQQYDNLPLTFGGGTKLEIK
B3: CD123 hScFv binder M12313 (scFv)
scFv: EVQLVQSGAEVKKPGSSVKVSCKASGGTFSSYAISWVRQAPGQGLEWMGGIIPIFGTANYAQKFQGRVTITADESTSTAYMELSSLRSEDTAVYYCASQKGGGWSIDAFDIWGQGTMVTVSSGGGGSGGGGSGGGGSQSVLTQPPSVSAASGQRVTISCSGSSSNIGNNYASWYQQLPGMAPKLLIYEDNKRPSGISDRFSGSQSGTSASLAITGLQAEDEADYYCQSYDSSLSGDVVFGGGTKLTVLG
B4: CD123 hScFv binder M12305 (scFv)
scFv: QVQLVQSGAEVKKPGSSVKVSCKASGGTFSSYAISWVRQAPGQGLEWMGGIIPIFGTANYAQKFQGRVTITTDESTSTAYMELSSLRSEDTAVYYCARRGWGGFSSGSAFDIWGQGTMVTVSSGGGGSGGGGSGGGGSNFMLTQPHSVSESPGNTVTISCTGSSGTIGSNFVQWYQQSPGRAPTLLIYEDTKRPSGVPPRFAGSVDSSSNSASLTISGLKTEDEADYYCQSYDSSNWVFGGGTKLTVLG
B5: CD123 hScFv binder M12303 (scFv)
scFv: EVQLVETGAEVKKPGASVKVSCKASGYTFTTYYVHWVRQAPGQGLEWMGIINPSGGSTSYAQKFQGRVTMTRDTSTSTVYMELSSLRSEDTAVYYCARDGGLGGYEAWGQGTLVTVSSGGGGSGGGGSGGGGSDIQLTQSPSALSASAGDRVTITCQASQDISNYLNWYQQKPGKAPKLLIYDASNLERGVPSRFSGSGSGTEFTFTISSLQPEDIATYYCQQYDNLPITFGQGTRLEIK
B6: CD123 hScFv binder M12318 (scFv)
scFv: EVQLVQSGGGVVQPGRSLRLSCAASGFTFSSYSMNWVRQAPGKGLEWVSSISSSSSYIYYADSVKGRFTISRDNAKNTLYLQMNSLRAEDTAVYYCARDNWGSLDYWGQGTLVTVSSGGGGSGGGGSGGGGSDIQMTQSPSSLSASVGDRVTITCQASQDISNYLNWYQQKPGKAPKLLIYDASNLETGVPSRFSGSGSGTDFTFTISSLQPEDIATYYCQQYDNLPHMYTFGQGTKLEIK
B7: CD123 hScFv binder M12311 (scFv)
scFv: EVQLVQSGAEVKKPGSSVKVSCKASGGTFSSYAISWVRQAPGQGLEWMGGIIPIFGTANYAQKFQGRVTITADESTSTAYMELSSLRSEDTAVYYCARARLGGAFDIWGQGTMVTVSSGGGGSGGGGSGGGGSQSVLTQPPSVSAAPGQKVTISCSGGSSNIGNHYVSWYQQLPGAAPKLLIYDDNKRPSGIPDRFSGSRSGTSATLGITGLQSGDEADYYCGTWDSSLAAHVFGTGTKVTVLG
B8: CD123 hScFv binder M12306 (scFv)
scFv: EVQLVQSGSELKKPGASVKVSCKASGGTFSSYAISWVRQAPGQGLEWMGGIIPIFGTANYAQKFQGRVTITADESTSTAYMELSSLRSEDTAVYYCASTARRGWDTAGPLDYWGQGTLVTVSSGGGGSGGGGSGGGGSDIQMTQSPSSLSASVGDRVTIACRASQTISRYLNWYQQKPGKAPKLLIYAASSLQSGVSSRFSGSGSGTEFTLTISSLQPEDFATYFCQQTYSPPITFGQGTRLEIK
B9: CD123 hScFv binder M12315 (scFv)
scFv: QVQLQQWGAGLLKPSETLSLTCAVYGGSFSGYYWSWIRQPPGKGLEWIGEINHSGSTNYNPSLKSRVTISVDTSKNQFSLKLSSVTAADTAVYYCARGQVKYSSSLGYWGQGTLVTVSSGGGGSGGGGSGGGGSQSVLTQPPSVSAAPGQKVTISCSGSSSNIGNNFVSWYQQLPGTAPKLLIYEDNKRPSGIPDRFSGSRSGTSATLGITGLQTGDEADYYCGTWDSSLGAWVFGGGTKLTVLG
B10: CD123 hScFv binder M12317 (scFv)
scFv: QVQLVETGGGLVKPGGSLRLSCAASGFTFSSYSMNWVRQAPGKGLEWVSSISSSSSYIYYADSVKGRFTISRDNAKNSLYLQMNSLRAEDTAVYYCARDGDFWSGAIDYWGQGTLVTVSSGGGGSGGGGSGGGGSDIQLTQSPSSLSASVGDRVTITCQASQDISNYLNWYQQKPGKAPKLLIYDASNLETGVPSRFSGSGSGTDFTFTISSLQPEDIATYYCQQYDNLPLFGGGTKLEIK
B11: CD123 hScFv binder M12314 (scFv)
scFv: EVQLVQSGAEVKKPGSSVKVSCKASGGTFSSYAISWVRQAPGQGLEWMGGIIPIFGTANYAQKFQGRVTITADESTSTAYMELSSLRSEDTAVYYCARVGCSGGSCYPDYWGQGTLVTVSSGGGGSGGGGSGGGGSEIVLTQSPSSLSASVGDRVTITCQASQDISNYLNWYQQKPGKAPKLLIYDASNLETGVPSRFSGSGSGTDFTFTISSLQPEDIATYYCQQYDNLPLTFGGGTKLDIK
B12: CD123 hScFv binder M12309 (scFv)
scFv: EVQLVQSGAEVKKPGATVKISCKVSGYTFTDYYMHWVQQAPGKGLEWIGLVDPEDGETIYAEKFQGRVTITADTSTDTAYMELSSLRSEDTAVYYCATAPLGEVGAAVDYWGQGTLVTVSSGGGGSGGGGSGGGGSHVILTQPPSVSAAPGQEVSISCSGSDANIGTNLVSWYQHVPGTAPKLLIYENSKRPSGIPARFSSSQSGTSATLAISGLQSGDEAIYYCLTWDRTLSGKIFGGGTQLTVLG

Target: T1, recombinant human CD123-Fc (human, UniProt P26951 19-305, limits assumed)
T1 construct: Panning and sorting antigen; not shown: Fc part
T1 sequence (looked up): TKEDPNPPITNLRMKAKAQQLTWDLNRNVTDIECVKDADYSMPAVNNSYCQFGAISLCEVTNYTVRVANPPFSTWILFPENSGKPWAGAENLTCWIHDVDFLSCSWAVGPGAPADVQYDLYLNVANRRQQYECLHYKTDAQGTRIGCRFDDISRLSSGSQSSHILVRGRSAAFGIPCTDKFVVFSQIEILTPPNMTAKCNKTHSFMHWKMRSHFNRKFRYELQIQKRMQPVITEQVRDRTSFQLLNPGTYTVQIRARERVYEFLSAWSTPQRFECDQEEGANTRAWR
Assay: yeast display; 3 rounds of MACS and a FACS sort (top 1%) with CD123-Fc; clone sequenced from the sorted pool, not tested singly
Protocol: A large yeast display human naive single chain variable fragment (ScFv) antibody library was used to isolate anti-human CD123 antibodies described herein. The library was constructed using a collection of human antibody gene repertoires from more than 60 individuals. Three rounds of magnetic-activated cell sorting (MACS) were performed to enrich human ScFv binders to the recombinant human CD123-Fc. For the first round of yeast library panning, the yeast display ScFv library (5×10¹⁰ cells) was incubated with 5 μg/mL CD123-Fc in 15 ml PBSA (consisting of 0.1% Bovine Serum Albumin (BSA) in Dulbecco's phosphate-buffered saline (PBS) buffer), at room temperature on a rotator for 1.5 hours. After two times washing with 25 ml PBSA, the yeast library mix was incubated with 100 μL Protein G microbeads (Miltenyi Biotec) at room temperature on a rotator for 30 minutes. After one time washing, the library mix was resuspended in 50 ml of PBSA and loaded onto the MACS cell separation column (LS column). After three times washing with 10 ml PBSA. […] These eluted yeast cells were combined and then resuspended into 50 ml SDCAA medium (20 g D-glucose, 6.7 g BD Difco™ Yeast Nitrogen Base without Amino Acids, 5 g Bacto™ Casamino Acids, 5.4 g Na2·HPO4, and 8.56 g NaH2PO4·H2O in 1 L water) and amplified with shaking at 225 rpm at 30° C. for 20 hours. The amplified pool was then induced in SGCAA medium (consisting of the same composition of SDCAA medium, but containing galactose instead of glucose), with shaking at 225 rpm at 30° C. for another 16 hours and used for next round of panning. The same process was repeated two more times to enrich the CD123-Fc specific binders.
To further enrich the binders with higher affinity and better specificity, FACS based sorting was employed to isolate the strongest binders from the pool. The induced pool was incubated with 1 μg/ml of CD123-Fc at room temperature for 1 hour and then stained with Anti-c-Myc-Alexa 488 and Goat anti-Hu-Fc PE conjugates, the top 1% of the pool with the highest PE versus FITC signal was gated and sorted. The sorted pool was amplified in SDCAA medium and yeast plasmid DNA was extracted and transformed into bacterial for single clone DNA sequencing. 40 random clones were sequenced and 36 unique sequences were identified.

| Binder | binding result |
| --- | --- |
| B1 | binds |
| B2 | binds |
| B3 | binds |
| B4 | binds |
| B5 | binds |
| B6 | binds |
| B7 | binds |
| B8 | binds |
| B9 | binds |
| B10 | binds |
| B11 | binds |
| B12 | binds |
